The subject of the series is Escherichia coli TOP10. Put plainly: shrunken log2 fold change of peptide-encoding DNA abundance (4.5 h post-induction vs induction); higher = less antimicrobial activity (less host growth inhibition). The note with it: time post-induction: 4.5 h; library: site-saturation at positions 5, 18, 19, 20.
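Further: peptides expressed intracellularly from a pBAD plasmid library in pooled LB shake-flask culture, induced with 0.3% L-arabinose, DNA abundance read by NGS, three biological replicates, DESeq2 with apeglm shrinkage.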

As for RRIRGRPPRLPRPRPRPQDRPRP, the “shrunken log2 fold change” value is 0.297.
The result for RRIRIRPPRLPRPRPRPGREPRP reads 0.311.
The result for RRIRTRPPRLPRPRPRPFQFPRP reads -0.131.
The result for RRIRNRPPRLPRPRPRPCFVPRP reads -0.147.
RRIRYRPPRLPRPRPRPPIIPRP: the “shrunken log2 fold change” value was -0.148.
With RRIRQRPPRLPRPRPRPGEPPRP the figure was -0.00996; with RRIRARPPRLPRPRPRPKWYPRP, 0.056.
The result for RRIRQRPPRLPRPRPRPYLSPRP reads 0.00493.
As for RRIRYRPPRLPRPRPRPSCFPRP, the “shrunken log2 fold change” value is -0.361.
With RRIRWRPPRLPRPRPRPFIHPRP the figure was -0.286; with RRIRTRPPRLPRPRPRPVDCPRP, -0.142; with RRIRQRPPRLPRPRPRPIHYPRP, 0.0133.
The result for RRIRLRPPRLPRPRPRPQDYPRP reads -0.31; that for RRIRCRPPRLPRPRPRPSIGPRP, -0.098; that for RRIRHRPPRLPRPRPRPYHGPRP, -0.0161.
The result for RRIRCRPPRLPRPRPRPDDNPRP reads 0.423; that for RRIRQRPPRLPRPRPRPYTVPRP, -0.104; that for RRIRRRPPRLPRPRPRPQSQPRP, 0.112.
Take RRIRLRPPRLPRPRPRPRGTPRP: the “shrunken log2 fold change” value was determined as 0.0155.
With RRIRERPPRLPRPRPRPSNTPRP the figure was -0.942; with RRIRPRPPRLPRPRPRPAMIPRP, -0.26; with RRIRWRPPRLPRPRPRPKNWPRP, 0.188.
The result for RRIRLRPPRLPRPRPRPCPTPRP reads 0.0726; that for RRIRMRPPRLPRPRPRPNIDPRP, -0.764.
With RRIRDRPPRLPRPRPRPPEWPRP the figure was 0.557.
For the sequence RRIRSRPPRLPRPRPRPLYVPRP, the “shrunken log2 fold change” value was -0.467.
With RRIRYRPPRLPRPRPRPEMRPRP the figure was 0.0856.
With RRIRYRPPRLPRPRPRPHMRPRP the figure was -0.02; with RRIRCRPPRLPRPRPRPRNGPRP, 0.124; with RRIRSRPPRLPRPRPRPVAVPRP, 0.0198.
With RRIRARPPRLPRPRPRPRNEPRP the figure was 0.557; with RRIRPRPPRLPRPRPRPGRDPRP, 0.286; with RRIRKRPPRLPRPRPRPPYQPRP, 0.0608.
As to RRIRYRPPRLPRPRPRPRVFPRP, the “shrunken log2 fold change” value was -0.167.
The result for RRIRLRPPRLPRPRPRPRCLPRP reads 0.18; that for RRIRVRPPRLPRPRPRPRGAPRP, 0.567; that for RRIRYRPPRLPRPRPRPDSQPRP, -0.429.
For RRIRPRPPRLPRPRPRPEWAPRP, the “shrunken log2 fold change” value was 2.06.
With RRIRERPPRLPRPRPRPFCAPRP the figure was 0.548.
The result for RRIRARPPRLPRPRPRPDAYPRP reads 0.522.
As for RRIRTRPPRLPRPRPRPSRHPRP, the “shrunken log2 fold change” value is -0.481.
With RRIRQRPPRLPRPRPRPKVMPRP the figure was -0.0261.
Consider RRIRWRPPRLPRPRPRPERMPRP, for which the “shrunken log2 fold change” value was 0.0689.
With RRIRLRPPRLPRPRPRPIITPRP, the “shrunken log2 fold change” value is -0.613.
The result for RRIRHRPPRLPRPRPRPHQKPRP reads -0.0284.
Regarding RRIRLRPPRLPRPRPRPRYGPRP, the “shrunken log2 fold change” value is -0.0186.
Turning to RRIRIRPPRLPRPRPRPMGMPRP, the “shrunken log2 fold change” value is -0.253.
With RRIRCRPPRLPRPRPRPSINPRP the figure was -0.86.
The result for RRIRERPPRLPRPRPRPTWPPRP reads 0.219; that for RRIRIRPPRLPRPRPRPVDDPRP, -0.0762.

For the origin of these results see the supplement of paper PMC9112550, “Optimization of the antimicrobial peptide Bac7 by deep mutational scanning” (BMC Biology, 2022).
